Assay [1] addresses Diaz-ES-VWFIIINle (diazirine-bearing end-stapled triple-helical peptide of three VWFIIINle strands).
Assay [2] deals with bovine Achilles tendon collagen type I film, 100% EDC/NHS crosslinked (bovine) (UniProt P02453).
Assay [3] has as its target III-23, GPC(GPP)5GPOGPSGPRGQOGVMGFOGPKGNDGAO(GPP)5GPC. Briefly: ELISA; control wells coated with III-23 or BSA; VWF-A3-GST at 5 μg/ml in PBS 0.1% BSA, room temperature; anti-GST HRP, A450. (ELISA stands for enzyme-linked immunosorbent assay.)
Assay [4] concerns the target bovine Achilles tendon collagen type I film, 100% EDC/NHS crosslinked (bovine) (UniProt P02453). Briefly: ELISA; collagen films in 96-well plates, EDC/NHS crosslinked 0% to 100%, blocked with PBS 5% BSA; VWF A3-GST at 5 μg/ml in PBS 0.1% BSA, room temperature (2 h in the methods, 1 h in the legend); anti-GST HRP, TMB, A450.
Assay [5] concerns the target bovine Achilles tendon collagen type I film, 50% EDC/NHS crosslinked (bovine) (UniProt P02453). The assay is described as above.
In assay [6] the target is bovine Achilles tendon collagen type I, non-crosslinked film (bovine) (UniProt P02453). The description is as above.
The target in assay [7] is Diaz-ES-VWFIIINle (diazirine-bearing end-stapled triple-helical peptide of three VWFIIINle strands). Kind of assay: ELISA; 100% EDC/NHS crosslinked collagen films in 96-well plates, without peptide or incubated with peptide at 5 μg/ml, left in the dark (no UV), washed with citrate buffer pH 3 and PBS; VWF-A3-GST at 5 μg/ml in PBS 0.1% BSA, room temperature; anti-GST HRP, A450.

Assay [8] deals with bovine Achilles tendon collagen type I film, 100% EDC/NHS crosslinked (bovine) (UniProt P02453). The assay is described as above.
Assay [9] concerns the target Diaz-ES-VWFIIINle (diazirine-bearing end-stapled triple-helical peptide of three VWFIIINle strands). Kind of assay: ELISA; 100% EDC/NHS crosslinked collagen films in 96-well plates, without peptide or incubated with peptide at 5 μg/ml for 30 min, then UV (365 nm) for 5 min, washed with citrate buffer pH 3 and PBS; VWF-A3-GST at 5 μg/ml in PBS 0.1% BSA, room temperature; anti-GST HRP, A450.

Assay [10] has as its target bovine Achilles tendon collagen type I film, 100% EDC/NHS crosslinked (bovine) (UniProt P02453). The assay is described as above.
The target in assay [11] is All other peptide treatments. Briefly: ELISA; as a6 and a7, the three other peptide treatments taken together (VWFIIINle with UV, VWFIIINle without UV, Diaz-ES-VWFIIINle without UV) on 100% crosslinked films; DDR2-Fc at 1 μg/ml; A450.
Assay [12] addresses bovine Achilles tendon collagen type I film, 100% EDC/NHS crosslinked (bovine) (UniProt P02453). Briefly: ELISA; collagen films in 96-well plates, EDC/NHS crosslinked 0% to 100%, blocked with PBS 5% BSA; DDR2-Fc at 1 μg/ml in PBS 0.1% BSA with 0.05% Tween-20, 2 h, room temperature; anti-Fc HRP, TMB, A370 read before addition of sulfuric acid.
Assay [13] concerns the target bovine Achilles tendon collagen type I, non-crosslinked film (bovine) (UniProt P02453). Described as above.
For assay [14], the target named is bovine Achilles tendon collagen type I film, 100% EDC/NHS crosslinked (bovine) (UniProt P02453). Kind of assay: ELISA; 100% EDC/NHS crosslinked collagen films in 96-well plates, without peptide or incubated with peptide at 5 μg/ml, left in the dark (no UV), washed with citrate buffer pH 3 and PBS; DDR2-Fc at 1 μg/ml in PBS 0.1% BSA and 0.05% Tween-20, 2 h, room temperature; anti-Fc HRP, A450.

Assay [15] concerns the target Diaz-ES-VWFIIINle (diazirine-bearing end-stapled triple-helical peptide of three VWFIIINle strands). Kind of assay: ELISA; 100% EDC/NHS crosslinked collagen films in 96-well plates, without peptide or incubated with peptide at 5 μg/ml for 30 min, then UV (365 nm) for 5 min, washed with citrate buffer pH 3 and PBS; DDR2-Fc at 1 μg/ml in PBS 0.1% BSA and 0.05% Tween-20, 2 h, room temperature; anti-Fc HRP, A450.

For assay [16], the target named is bovine Achilles tendon collagen type I film, 100% EDC/NHS crosslinked (bovine) (UniProt P02453). The description is as above.

Our source for the platelet surface coverage; human whole blood (full-length plasma VWF) perfused, A450 and A370 values is paper PMC6131271.

In the case of “recombinant GST-tagged human VWF-A3 domain (from UniProt P04275 23-2813) (domain or fragment)”, in [1], the platelet surface coverage; human whole blood (full-length plasma VWF) perfused at 1000 s^-1 over 100% crosslinked films with Diaz-ES-VWFIIINle after UV amounted to 42.9%. For the same molecule, the platelet surface coverage; human whole blood (full-length plasma VWF) perfused at 1000 s^-1 over 100% crosslinked films without peptide in assay [2] came to 5.6%. Further, the A450 in assay [3] was determined as 1.42 absorbance; in [4], 0.13 absorbance; in assay [5], 0.12 absorbance; in [6], 0.57 absorbance; in assay [7], 1.25 absorbance; in [8] it was 0.26 absorbance. Moreover, the values for the A450 in assay [9] and in assay [10] were 1.8 absorbance and 0.24 absorbance, respectively.

B1: Recombinant soluble protein comprising the entire DDR2 extracellular region, fused to the Fc-sequence of human IgG2 (Fc fusion)
chain: KAQVNPAICRYPLGMSGGQIPDEDITASSQWSESTAAKYGRLDSEEGDGAWCPEIPVEPDDLKEFLQIDLHTLHFITLVGTQGRHAGGHGIEFAPMYKINYSRDGTRWISWRNRHGKQVLDGNSNPYDIFLKDLEPPIVARFVRFIPVTDHSMNVCMRVELYGCVWLDGLVSYNAPAGQQFVLPGGSIIYLNDSVYDGAVGYSMTEGLGQLTDGVSGLDDFTQTHEYHVWPGYDYVGWRNESATNGYIEIMFEFDRIRNFTTMKVHCNNMFAKGVKIFKEVQCYFRSEASEWEPNAISFPLVLDDVNPSARFVTVPLHHRMASAIKCQYHFADTWMMFSEITFQSDAAMYNNSEALPTSPMAPTTYDPMLKVDDSNTR
Regarding B1, the A450 is 1.16 to 1.43 absorbance in [11], 0.61 absorbance in assay [14], 1.9 absorbance in assay [15] and 0.61 absorbance in assay [16]. Moreover, the A370 in [12] was determined as 0.18 absorbance; in assay [13], 0.32 absorbance.
